The values that follow come from patent US20210206877A1 (Genentech, published 2021).

This experiment has as its target BACE1 endogenous to primary cortical neurons from E16.5 CD1 mice (mouse, UniProt P56818 46-501). Briefly: cell-based or functional assay.

Sequence of BACE1 endogenous to primary cortical neurons from E16.5 CD1 mice (P56818 46-501): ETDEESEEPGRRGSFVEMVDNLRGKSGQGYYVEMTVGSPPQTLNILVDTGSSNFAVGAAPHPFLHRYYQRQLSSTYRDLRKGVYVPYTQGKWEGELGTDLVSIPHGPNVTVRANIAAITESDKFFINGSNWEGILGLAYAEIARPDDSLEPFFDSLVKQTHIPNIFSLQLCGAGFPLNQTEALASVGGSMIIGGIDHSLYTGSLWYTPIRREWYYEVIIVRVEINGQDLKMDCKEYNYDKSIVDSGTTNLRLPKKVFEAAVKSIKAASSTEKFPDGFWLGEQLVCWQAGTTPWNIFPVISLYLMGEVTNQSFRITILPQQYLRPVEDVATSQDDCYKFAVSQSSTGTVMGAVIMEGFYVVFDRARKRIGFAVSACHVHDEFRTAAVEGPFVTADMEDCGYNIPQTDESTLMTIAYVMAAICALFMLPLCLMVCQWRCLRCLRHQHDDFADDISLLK

B1: 5931 (antibody, V domains shown)
VH: QLQLQESGPGLVKPSETLSLTCTVSGGSISWSSYYWSWIRQPPGKGLEWIGSIYRSGRTYYNPSLKGRVTISVDTSKNQFSLKLSSVTAADTAVYYCARVGHGINYFDLWGRGTLVTVSS
VL: EIVLTQSPATLSLSPGERATLSCRASQSVSSYLAWYQQKPGQAPRLLIYDASKRATGIPARFSGSGSGTDFTLTISSLEPEDFAVYYCQQVYTWPPRTFGGGTKVEIK
Regarding B1, the “max % inhibition, Abeta x-40 in mouse cortical neurons” value (“max % inhibition” below) was 69%.

B2: 5983 (antibody, V domains shown)
VH: QLQLQESGPGLVKPSETLSLTCTVSGGSISSSSYYWGWIRQPPGKGLEWIGNIYYSGSTYYNPSLRSRVTISVDTSKNQFFLKLSSVTAADTAVYYCARLGHGYNYFDLWGRGTLVTVSS
VL: EIVLTQSPATLSLSPGERATLSCRASQSVSSYLAWFQQKPGQAPRLLIYDASNRATGIPARFSGSGSGTDFTLTISSLEPEDFAVYYCQQVYVWPPRTFGGGTKVEIK
B2: the “max % inhibition” value was determined as 72%.

B3: 6285 (antibody, V domains shown)
VH: QLQLQESGPGLVKPSETLSLTCTVSGGSTSSSSYYWGWIRQPPGKGLEWIGSIYRSGSTYYNPSLKSRVTISVDTSKNQFSLKLSSVTAADTAVYYCARVGHGISYFDLWGRGTLVTVSS
VL: EIVLTQSPATLSLSPGERATLSCRASQSVSSYLAWYQQKPGQAPRLLIYDASSRATGIPARFSGSGSGTDFTLTISSLEPEDFAVYYCQQSLTWPPRTFGGGTKVEIK
Consider B3, for which the “max % inhibition” value amounted to 57%.

B4: 6293 (antibody, V domains shown)
VH: QLQLQESGPGLVKPSETLSLTCTVSGGSISSSSYYWGWIRQPPGKGLEWIGMIYYSGSTWYNPSLRSRVTISVDTSKNQFSLKLSSVTAADTAVYYCARVGHGVSYFDLWGRGTLVTVSS
VL: EIVLTQSPATLSLSPGERATLSCRASQSVSSYLAWYQQKPGQAPRLLIYDASKRATGIPARFSGSGSGTDFTLTISSLEPEDFAVYYCQQVYTWPPRTFGGGTKVEIK
Consider B4, for which the “max % inhibition” value stood at 75%.

B5: 6289 (antibody, V domains shown)
VH: QLQLQESGPGLVKPSETLSLTCTVSGGSISSSSYYWGWIRQPPGKGLEWIGSIYRSGSTYYNPSLRSRVTISVDTSKNQFSLKLSSVTAADTAVYYCVRVGHGISYFDLWGRGTLVTVSS
VL: EIVLTQSPATLSLSPGERATLSCRASQSVSSYLAWYQQKPGQAPRLLIYDASNRATGIPARFSGSGSGTDFTLTISSLEPEDFAVYYCQQSLTWPPRTFGGGTKVEIK
As for B5, the “max % inhibition” value turned out to be 74%.

B6: 6280 (antibody, V domains shown)
VH: QLQLQESGPGLVKPSETLSLTCTVSGGSTSSSSYYWGWIRQPPGKGLEWIGSIYRSGSTYYNPSFKSRVTISVDTSKNQFSLKLSSVTAADTAVYYCARVGHGISYFDLWGRGTLVTVSS
VL: EIVLTQSPATLSLSPGERATLSCRASQSVSSYLAWYQQKPGQAPRLLIYDASNRATGIPARFSGSGSGTDFTLTISSLEPEDFAVYYCQQSLTWPPRTFGGGTKVEIK
As to B6, the “max % inhibition” value turned out to be 65%.

B7: 5982 (antibody, V domains shown)
VH: QLQLQESGPGLVKPSETLSLTCTVSGGSISSSSYYWGWIRQPPGKGLEWIGNIYYSGSTYYNPSLKSRVTISVDTSKNQFSLKLSSVTAADTAVYYCARLGHGYSYFDLWGRGTLVTVSS
VL: EIVLTQSPATLSLSPGERATLSCRASQSVSSYLAWFQQKPGQAPRLLIYDASNRATGIPARFSGSGSGTDFTLTISSLEPEDFAVYYCQQVYVWPPRTFGGGTKVEIK
On to B7, for which the “max % inhibition” value came out at 71%.

B8: 5932 (antibody, V domains shown)
VH: QLQLQESGPGLVKPSETLSLTCTVSGGSISRGSYYWGWIRQPPGKGLEWIGMIYYSGSTWYNPSLKSRVTISVDTSKNQFSLKLSSVTAADTAVYYCARVGHGISYFDLWGRGTLVTVSS
VL: EIVLTQSPATLSLSPGERATLSCRASQSVSSYLAWYQQKPGQAPRLLIYDASKRATGIPARFSGSGSGTDFTLTISSLEPEDFAVYYCQQVYTWPPRTFGGGTKVEIK
For the molecule B8, the “max % inhibition” value was found to be 57%.

B9: 6290 (antibody, V domains shown)
VH: QLQLQESGPGLVKPSETLSLTCTVSGGSISSSSYYWGWIRQPPGKGLEWIGMIYYSGSTWYNPSLKSRVTISVDTSKNQFSLKLSSVTAADTAVYYCARVGLGVSYFDLWGRGTLVTVSS
VL: EIVLTQSPATLSLSPGERATLSCRASQSVSSYLAWYQQKPGQAPRLLIYDASKRATGIPARFSGSGSGTDFTLTISSLEPEDFAVYYCQQVYTWPPRTFGGGTKVEIK
Turning to B9, the “max % inhibition” value came to 63%.

B10: 5985 (antibody, V domains shown)
VH: QLQLQESGPGLVKPSETLSLTCTVSGGSISSSSYYWGWIRQPPGKGLEWIGNIYYSGSTYYNPSLKSRVTISVDTSKNQFSLKLSSVTAADTAVYYCARLGHGYNYFDLWGRGTLVTVSS
VL: EIVLTQSPATLSLSPGERATLSCRASQSVSSYLAWFQQKPGQAPRLLIYDASNRATGIPARFSGSGSGTDFTLTISSLEPEDFAVYYCQQVYVWPPRTFGGGTKVEIK
B10: the “max % inhibition” value was determined as 73%.

B11: 5984 (antibody, V domains shown)
VH: QLQLQESGPGLVKPSETLSLTCTVSGGSISSSSYYWGWIRQPPGKGLEWIGNIYYSGSTYYNPSLKGRVTISVDTSKNQFSLKLSSVTAADTAVYYCARLGHGYNYFDLWGRGTLVTVSS
VL: EIVLTQSPATLSLSPGERATLSCRASQSVSSYLAWFQQKPGQAPRLLIYDASNRATGIPARFSGSGSGTDFTLTISSLEPEDFAVYYCQQVYVWPPRTFGGGTKVEIK
As for B11, the “max % inhibition” value stood at 70%.

B12: 6291 (antibody, V domains shown)
VH: QLQLQESGPGLVKPSETLSLTCTVSGGSISSSSYYWGWIRQPPGKGLEWIGMIYYSGSTWYNPSLKSRVTISVDTSKNQFSLKLSSVTAADTAVYYCARVGHGVSYFDLWGRGTLVTVSS
VL: EIVLTQSPATLSLSPGERATLSCRASQSVSSYLAWYQQKPGQAPRLLIYGASKRATGIPARFSGSGSGTDFTLTISSLEPEDFAVYYCQQVYTWPPRTFGGGTKVEIK
Consider B12, for which the “max % inhibition” value was 68%.

B13: 5990 (antibody, V domains shown)
VH: QLQLQESGPGLVKPSETLSLTCTVSGGSISWSSYYWSWIRQPPGKGLEWIGSIYRSGRTYYNPSLKSRVTISVDTSKNQFSLKLSSVTAADTAVYYCARVGHGINYFDLWGRGTLVTVSS
VL: EIVLTQSPATLSLSPGERATLSCRASRSVNSYLAWYQQKPGQAPRLLIYDASKRATGIPARFSGSGSGTDFTLTISSLEPEDFAVYYCQQVYTWPPRTFGGGTKVEIK
Take B13: the “max % inhibition” value was 61%.

B14: 5933 (antibody, V domains shown)
VH: QLQLQESGPGLVKPSETLSLTCTVSGGSISRGSYYWGWIRQPPGKGLEWIGMIYYSGSTWYNPSLKSRVTISVDTSKNQFSLKLSSVTAADTAVYYCARVGHGVSYFDLWGRGTLVTVSS
VL: EIVLTQSPATLSLSPGERATLSCRASQSVSSYLAWYQQKPGQAPRLLIYGASKRATGIPARFSGSGSGTDFTLTISSLEPEDFAVYYCQQVYTWPPRTFGGGTKVEIK
Regarding B14, the “max % inhibition” value turned out to be 67%.

B15: 6288 (antibody, V domains shown)
VH: QLQLQESGPGLVKPSETLSLTCTVSGGSTSSSSYYWGWIRQPPGKGLEWIGSIYRSGSTYYNPSLRSRVTISVDTSKNQFSLKLSSVTAADTAVYYCARVGHGISYFDLWGRGTLVTVSS
VL: EIVLTQSPATLSLSPGERATLSCRASQSVSSYLAWYQQKPGQAPRLLIYDASNRATGIPARFSGSGSGTDFTLTISSLEPEDFAVYYCQQSLTWPPRTFGGGTKVEIK
On to B15, for which the “max % inhibition” value was 67%.

B16: 6294 (antibody, V domains shown)
VH: QLQLQESGPGLVKPSETLSLTCTVSGGSISSSSHYWGWIRQPPGKGLEWIGMIYYSGSTWYNPSLKSRVTISVDTSKNQFSLKLSSVTAADTAVYYCARVGHGVSYFDLWGRGTLVTVSS
VL: EIVLTQSPATLSLSPGERATLSCRASQSVSSYLAWYQQKPGQAPRLLIYDASKRATGIPARFSGSGSGTDFTLTISSLEPEDFAVYYCQQVYTWPPRTFGGGTKVEIK
As for B16, the “max % inhibition” value came to 59%.

B17: 5986 (antibody, V domains shown)
VH: QLQLQESGPGLVKPSETLSLTCTVSGGSISSSSYYWGWIRQPPGKGLEWIGQIYYSGSTFYNPSLKSRVTISVDTSKNQFSLKLSSVTAADTAVYYCARLGHGYSYFDLWGRGTLVTVSS
VL: EIVLTQSPATLSLSPGERATLSCRASQSVSSYLAWFQQKPGQAPRLLIYDASNRATGIPARFSGSGSGTDFTLTISSLEPEDFAVYYCQQVYVWPPRTFGGGTKVEIK
With B17, the “max % inhibition” value stood at 67%.

B18: 6275 (antibody, V domains shown)
VH: QVQLVQSGAEVKKPGSSVKVSCKASGGTFRGYAISWVRQAPGQGLEWMGNIIPGFGTANYAQKFQGRVTITADESTSTAYMELSSLRSEDTAVYYCARSGGTKYGMLDVWGQGTMVTVSS
VL: EIVMTQSPATLSVSPGERATLSCRASQSVSSNLAWYQQKPGQAPRLLIYGASTRATGIPARFSGSGSGTEFTLTISSLQSEDFAVYYCQQLFLWPPRTFGGGTKVEIK
With B18, the “max % inhibition” value was determined as 71%.

B19: 6279 (antibody, V domains shown)
VH: QVQLVQSGAEVKKPGSSVKVSCKASGGTFRGYAISWVRQAPGQGLEWMGNIIPGFGTANYAQKFQGRVTITADESTSTAYMELSSLRSEDTAVYYCARSGGTKYGMLDVWGQGTMVTVSS
VL: EIVMTQSPATLSVSPGERATLSCRASQSVSSNLAWYQQKPGQAPRLLIYGASTRATGIPARFSGSGSGTEFTLTISSLQSEDFAVYYCQQLLLWPPRTFGGGTKVEIK
Consider B19, for which the “max % inhibition” value stood at 71%.

B20: 6276 (antibody, V domains shown)
VH: QVQLVQSGAEVKKPGSSVKVSCKASGGTFRGYAISWVRQAPGQGLEWMGNIIPGLSTANYAQKFQGRVTITADESTSTAYMELSSLRSEDTAVYYCARSGGTKYGMLDVWGQGTMVTVSS
VL: EIVMTQSPATLSVSPGERATLSCRASQSVSSNLAWYQQKPGQAPRLLIYGASTRATGIPARFSGSGSGTEFTLTISSLQSEDFAVYYCQQLILWPPRTFGGGTKVEIK
Turning to B20, the “max % inhibition” value worked out at 81%.
